Marks after values point to notes of the source that are not given here. Starred links: 1 amine or outer side, 2 acyl side, 3 side chain; linkers in the order of their positions; H or OH if unused. Non-standard residues stand in square brackets, D forms with d. Residues, ends and D or L forms follow the SMILES beside them. *: point of attachment. Exatecan = CC[C@@]1(O)C(=O)OCc2c1cc1n(c2=O)Cc2c-1nc1cc(F)c(C)c3c1c2[C@@H](N*)CC3; Hexanoyl(6-maleimido) = O=C1C=CC(=O)N1CCCCCC(=O)*; X1 = C[C@@H](OCN[*:1])C(=O)[*:2]
Legend:
[1] = Assay 8: stability of linker-drug compounds; type: physicochemical; conditions: high temperature, high humidity, illumination or 0.5% BSA-PBS; compared with Deruxtecan
Experimental: Different linker-drug compounds such as Deruxtecan and JSSW-001 were studied under high temperature (40°C, 60°C), high humidity (25°C/75% RH and 25°C/92.5% RH), illumination (illuminance 4500Lux, near-UV energy 90µw/cm^2), or 0.5% BSA-PBS conditions. Samples were collected at different times after exposure to these conditions, and the concentration changes of the linker-drug compounds in the samples were detected using the LC-MS/MS method.

[2] = system: human lung cancer PC9-GR (gefitinib-resistant cell) xenograft tumor; assay: Assay 3: PC9-GR xenograft efficacy of patritumab-ADC; type: in vivo, NU/NU mice; conditions: 3 mg/kg i.v./qw*4w
From the text: NU/NU mice, 5-6 weeks old, 16 mice
(§1) The assay was terminated on day 28 after the administration.

[3] = system: human colon cancer SW620 xenograft tumor; assay: Assay 15: SW620 xenograft efficacy; type: in vivo, NU/NU mice; conditions: 7 mg/kg i.v./single administration
From the text: (§2) NU/NU mice, 5-6 weeks old, 18 mice
The assay was terminated on day 26 after the administration.

[4] = system: human colorectal cancer DiFi xenograft tumor; assay: Assay 16: DiFi xenograft efficacy of patritumab-ADC; type: in vivo, NU/NU mice; conditions: 10 mg/kg i.v./qw*3w (as in Table 29)
From the text: as §2, §1

EGFR on MDA-MB-468 cells [5] = biological target: T1, EGFR on MDA-MB-468 cells (human, UniProt P00533 25-1210); assay: flow cytometry (FACS) on MDA-MB-468 cells, pH 6.0; end of the range tied to SWY2111 by Table 1
T1 construct: whole, on cells; also called target antigen; HER1

EGFR on MDA-MB-468 cells [6] = biological target: T1, EGFR on MDA-MB-468 cells; assay: flow cytometry (FACS) on MDA-MB-468 cells, pH 7.4; end of the range tied to SWY2111 by Table 1
EGFR on MDA-MB-468 cells [7] = biological target: T1, EGFR on MDA-MB-468 cells; assay: flow cytometry (FACS) on MDA-MB-468 cells, antibody diluted in PBS pH 6.0, FITC anti-human Fc secondary
EGFR on MDA-MB-468 cells [8] = biological target: T1, EGFR on MDA-MB-468 cells; assay: flow cytometry (FACS) on MDA-MB-468 cells, antibody diluted in PBS pH 7.4, FITC anti-human Fc secondary
EGFR on MDA-MB-468 cells [9] = biological target: T1, EGFR on MDA-MB-468 cells; assay: flow cytometry (FACS) on MDA-MB-468 cells, pH 6.0; end of the range tied to SWY2112 by Table 1
EGFR on MDA-MB-468 cells [10] = biological target: T1, EGFR on MDA-MB-468 cells; assay: flow cytometry (FACS) on MDA-MB-468 cells, pH 7.4; end of the range tied to SWY2113 by Table 1
EGFR on MDA-MB-468 cells [11] = biological target: T1, EGFR on MDA-MB-468 cells; assay: flow cytometry (FACS) on MDA-MB-468 cells, pH 6.0

With `CC[C@@]1(O)C(=O)OCc2c1cc1n(c2=O)Cc2c-1nc1cc(F)c(C)c3c1c2[C@@H](NC(=O)[C@@H](C)OCNC(=O)CNC(=O)[C@H](Cc1ccccc1)NC(=O)CNC(=O)CNC(=O)CCCCCN1C(=O)C=CC1=O)CC3` [JSSW-001, N-((2R,10S)-10-benzyl-1-(((1S,9S)-9-ethyl-5-fluoro-9-hydroxy-4-methyl-10,13-dioxo-2,3,9,10,13,15-hexahydro-1H,12H-benzo[de]pyrano[3',4':6,7]indolizino[1,2-b]quinolin-1-yl)amino)-2-methyl-1,6,9,12,15-pentaoxo-3-oxa-5,8,11,14-tetraazahexadecan-16-yl)-6-(2,5-dioxo-2,5-dihydro-1H-pyrrol-1-yl)hexanamide] ({Hexanoyl(6-maleimido)}-GGFG[X1]-Exatecan) the “stability of linker-drug compound” value [1] was “better stability”.

With “patritumab-DXD ADC (DAR=7.3): patritumab conjugated with commercially available Deruxtecan [reference compound]” the “TGI (%) Day 28” value [2] was 59.5%, the “Tumor Volume” value ([2]; 28 days) was 373.4 ± 102.8** mm^3 and the “TGI (%) Day 21” value [3] was 73.2%. For the same molecule, the “Tumor Volume” value ([3]; 21 days) was 461.3±278.1*** mm^3, the “TGI (%) Day 28” value [4] was 54.0% and the “Tumor Volume” value ([4]; 28 days) was 512.5 ± 470.8* mm^3.

B1: SWY2111 (antibody, human IgG1, kappa, V domains shown)
VH: QVQLQESGPGLVKPSETLSLTCTVSGFSLSDYDVHWVRQAPGKGLEWLGVIWSGGNTDYNTPFTSRLTISVDTSKNQFSLKLSSVTAADTAVYYCARALDDYDYEFAYWGQGTLVTVSS
VL: EIVLTQSPDFQSVTPKEKVTITCRASQSIGTNIHWYQQKPDQSPKLLIKYASESISGIPSRFSGSGSGTDFTLTINSLEAEDAATYYCQQNNEWPTSFGQGTKLEIKR
notes: also called EGFR antibody SWY2111
In the case of B1, the “fold change of affinity compared to SWY2110 at pH=6.0” value (EGFR on MDA-MB-468 cells [5]) is reported as 1.2 to 1.3 times, the “fold decrease of affinity compared to SWY2110 at pH=7.4” value (EGFR on MDA-MB-468 cells [6]) is reported as 3 times and the EC50 (EGFR on MDA-MB-468 cells [7]) is reported as 0.6 nM. For the same molecule, the EC50 (EGFR on MDA-MB-468 cells [8]) was 1.45 nM.

B2: SWY2112 (antibody, human IgG1, kappa, V domains shown)
VH: QVQLQESGPGLVKPSETLSLTCTVSGFSLSEYDVHWVRQAPGKGLEWLGVIWSGGNTDYNTPFTSRLTISVDTSKNQFSLKLSSVTAADTAVYYCARALDDYDYEFAYWGQGTLVTVSS
VL: EIVLTQSPDFQSVTPKEKVTITCRASQSIGTNIHWYQQKPDQSPKLLIKYASESISGIPSRFSGSGSGTDFTLTINSLEAEDAATYYCQQNNEWPTSFGQGTKLEIKR
notes: also called EGFR antibody SWY2112
For B2, the EC50 (EGFR on MDA-MB-468 cells [7]) was 0.67 nM, the EC50 (EGFR on MDA-MB-468 cells [8]) was 2.35 nM and the “fold change of affinity compared to SWY2110 at pH=6.0” value (EGFR on MDA-MB-468 cells [9]) was 1.2 to 1.3 times.

B3: SWY2113 (antibody, human IgG1, kappa, V domains shown)
VH: QVQLQESGPGLVKPSETLSLTCTVSGFSLSHYDVHWVRQAPGKGLEWLGVIWSGGNTDYNTPFTSRLTISVDTSKNQFSLKLSSVTAADTAVYYCARALDDYDYEFAYWGQGTLVTVSS
VL: EIVLTQSPDFQSVTPKEKVTITCRASQSIGTNIHWYQQKPDQSPKLLIKYASESISGIPSRFSGSGSGTDFTLTINSLEAEDAATYYCQQNNEWPTSFGQGTKLEIKR
notes: also called EGFR antibody SWY2113
With B3 the EC50 (EGFR on MDA-MB-468 cells [7]) was 3.39 nM, the “fold decrease of affinity compared to SWY2110 at pH=7.4” value (EGFR on MDA-MB-468 cells [10]) was 3 to 9.7 times and the EC50 (EGFR on MDA-MB-468 cells [8]) was 4.76 nM. The “fold decrease of affinity compared to SWY2110 at pH=6.0” value (EGFR on MDA-MB-468 cells [11]) was 6.6 times.
